Two substances from patent EP4467153A1, “CONSTRAINED PEPTIDE INHIBITORS OF LRRK2-FADD INTERACTIONS” (University of Georgia Research Foundation, Inc., priority 2023, dated 2024) can be followed below.

This assay deals with T1, LRRK2-FADD PPI (Flag G2019S-LRRK2 and V5-FADD) (Homo sapiens, UniProt Q5S007, G2019S).
T1 construct: expressed in transfected cells; host or cells: HEK293T
Kind of assay: Co-immunoprecipitation of LRRK2-FADD interaction in transfected HEK293T cells. In kind it is cell-based. The following applies: 10 µM, 48 hr, normalized to immunoprecipitated Flag-LRRK2. As for the experimental part: It was then assessed whether this peptide library (FARM1-FARM5) could disrupt the interaction between over-expressed Flag G2019S-LRRK2 and V5-FADD by co-immunoprecipitation. Flag-LRRK2 was purified on anti-Flag resin and the eluate as well as the protein extract (input) separated by SDS-PAGE, with the membranes probed for V5 (FADD) and Flag (LRRK2). The transfected cells were treated with the indicated peptide (10 µM) for a total of 48 hr prior to collection. […] To minimize the use of primary mouse cortical neuron cultures, FARMS was used in subsequent experiments to examine the potential neuroprotective effects of LRRK2-FADD disruption.
Assessment of LRRK2-FADD interaction. Co-immunoprecipitation was undertaken to determine the effects of the stapled peptides on the LRRK2-FADD PPI, as previously described. Briefly, 10cm plates of HEK293T cells transiently expressing Flag-WT or mutant LRRK2 and V5-FADD (at a 3:1 ratio), and treated with different concentrations of FARM peptides (as indicated in the Figure legends), were washed in PBS and lysed in co-IP buffer (20mM HEPES, pH7.4; 150 mM NaCl; 0.1% NP40; 2 mM EGTA; 2 mM MgCl2; 10% glycerol, pH 7.2; protease and phosphatase cocktail [Agilent Technologies]) for 30 min on ice followed by 15 strokes with a Dounce glass homogenizer, and centrifugation at 13000 rpm for 15 min to remove cellular debris. Following pre-clearing with IgG-coupled beads, 40 µl of washed anti-Flag resin (Sigma-Aldrich) per mg of protein was added and the samples incubated under rotation overnight at 4°C. The following morning, the beads were centrifuged and washed a total of 5X with coIP buffer, before elution in 2X SDS sample buffer at 95°C for 10 min. The eluate (and input) was separated by SDS-PAGE and membranes probed with anti-Flag (LRRK2) and V5 (FADD).

Positions of bridges follow the written chain, without caps; N, C: chain ends. Non-standard residues stand in square brackets, D forms with d. Primed or numbered codes have the meaning given here. FAM = 5(6)-carboxyfluorescein label; S5 = C=CCCC[C@](C)(N)C(=O)O; PEG3′ = PEG3 spacer

T1 sequence (Q5S007 whole entry G2019S): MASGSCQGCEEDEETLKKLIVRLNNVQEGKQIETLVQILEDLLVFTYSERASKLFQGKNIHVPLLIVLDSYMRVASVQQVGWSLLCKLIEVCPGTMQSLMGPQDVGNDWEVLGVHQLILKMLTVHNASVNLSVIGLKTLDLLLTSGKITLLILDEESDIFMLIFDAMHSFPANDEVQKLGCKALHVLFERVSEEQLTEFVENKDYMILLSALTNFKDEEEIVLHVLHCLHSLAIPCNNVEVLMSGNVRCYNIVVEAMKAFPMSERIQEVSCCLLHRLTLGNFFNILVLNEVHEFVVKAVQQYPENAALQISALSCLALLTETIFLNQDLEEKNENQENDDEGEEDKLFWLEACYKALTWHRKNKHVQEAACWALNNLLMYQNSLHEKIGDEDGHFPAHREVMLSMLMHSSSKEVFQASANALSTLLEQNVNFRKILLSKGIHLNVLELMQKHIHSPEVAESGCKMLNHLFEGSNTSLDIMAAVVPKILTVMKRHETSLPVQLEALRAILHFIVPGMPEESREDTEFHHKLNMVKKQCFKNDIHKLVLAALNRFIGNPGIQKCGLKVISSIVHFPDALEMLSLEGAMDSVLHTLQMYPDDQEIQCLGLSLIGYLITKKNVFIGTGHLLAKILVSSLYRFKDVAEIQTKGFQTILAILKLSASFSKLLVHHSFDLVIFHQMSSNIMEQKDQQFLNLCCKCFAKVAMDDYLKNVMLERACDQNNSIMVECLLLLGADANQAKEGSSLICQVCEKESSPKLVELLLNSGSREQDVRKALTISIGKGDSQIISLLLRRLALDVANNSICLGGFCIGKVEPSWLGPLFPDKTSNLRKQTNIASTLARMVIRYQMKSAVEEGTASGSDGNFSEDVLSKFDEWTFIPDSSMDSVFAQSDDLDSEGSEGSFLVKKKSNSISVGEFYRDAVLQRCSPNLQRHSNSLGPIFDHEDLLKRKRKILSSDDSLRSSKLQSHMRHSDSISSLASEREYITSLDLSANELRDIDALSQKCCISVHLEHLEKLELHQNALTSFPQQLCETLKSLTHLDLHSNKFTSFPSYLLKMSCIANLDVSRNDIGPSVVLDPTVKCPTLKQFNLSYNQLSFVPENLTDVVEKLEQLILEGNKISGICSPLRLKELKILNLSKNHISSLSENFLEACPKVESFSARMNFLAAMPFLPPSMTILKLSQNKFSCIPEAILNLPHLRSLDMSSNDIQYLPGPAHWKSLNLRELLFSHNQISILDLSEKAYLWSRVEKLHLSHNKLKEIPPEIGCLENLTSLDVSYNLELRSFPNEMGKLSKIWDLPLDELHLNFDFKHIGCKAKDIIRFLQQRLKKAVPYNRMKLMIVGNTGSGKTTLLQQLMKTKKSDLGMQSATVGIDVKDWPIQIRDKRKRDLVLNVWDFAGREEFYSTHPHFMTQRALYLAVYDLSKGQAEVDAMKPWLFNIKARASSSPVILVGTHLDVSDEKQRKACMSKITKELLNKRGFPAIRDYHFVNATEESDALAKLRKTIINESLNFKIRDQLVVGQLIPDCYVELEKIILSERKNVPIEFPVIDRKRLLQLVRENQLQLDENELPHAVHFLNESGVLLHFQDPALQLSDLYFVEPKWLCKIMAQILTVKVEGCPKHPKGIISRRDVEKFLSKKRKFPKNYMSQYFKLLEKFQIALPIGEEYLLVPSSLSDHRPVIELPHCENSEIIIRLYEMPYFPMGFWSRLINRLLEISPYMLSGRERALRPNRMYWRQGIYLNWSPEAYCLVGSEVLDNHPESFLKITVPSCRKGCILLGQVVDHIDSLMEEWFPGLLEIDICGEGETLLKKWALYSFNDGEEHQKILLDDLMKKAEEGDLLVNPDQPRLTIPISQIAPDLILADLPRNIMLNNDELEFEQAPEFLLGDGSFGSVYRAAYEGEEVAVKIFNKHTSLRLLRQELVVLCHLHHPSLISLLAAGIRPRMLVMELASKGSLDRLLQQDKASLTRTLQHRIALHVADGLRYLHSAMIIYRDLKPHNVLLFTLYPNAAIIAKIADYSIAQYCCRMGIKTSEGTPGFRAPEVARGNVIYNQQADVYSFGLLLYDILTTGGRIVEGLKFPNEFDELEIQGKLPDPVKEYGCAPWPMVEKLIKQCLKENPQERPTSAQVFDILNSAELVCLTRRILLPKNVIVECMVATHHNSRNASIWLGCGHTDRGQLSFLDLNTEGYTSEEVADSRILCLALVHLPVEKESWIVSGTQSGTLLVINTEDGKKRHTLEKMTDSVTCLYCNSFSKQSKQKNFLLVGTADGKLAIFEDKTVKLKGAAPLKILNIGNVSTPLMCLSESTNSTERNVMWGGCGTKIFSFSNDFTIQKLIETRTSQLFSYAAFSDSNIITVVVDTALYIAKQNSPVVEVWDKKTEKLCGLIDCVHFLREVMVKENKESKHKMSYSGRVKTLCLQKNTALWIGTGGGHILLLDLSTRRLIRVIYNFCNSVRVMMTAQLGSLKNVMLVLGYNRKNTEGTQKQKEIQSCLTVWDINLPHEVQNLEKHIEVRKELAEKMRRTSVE

For “FARM2: FAM-labeled hydrocarbon-stapled FADD Armadillo domain peptide; mass fits SEQ ID NO. 3 KVADLXQEVXQARDLQNRSK ({FAM-PEG3′}-KVADL[S5]QEV[S5]QARDLQNRSK-NH2; staple 6-10; not fully specified) [FAM-labeled hydrocarbon-stapled FADD Armadillo domain peptide; 3 KVADLXQEVX…]”, the “amount of FADD that co-purified with G2019S-LRRK2 (LRRK2-FADD interaction)” value is reported as “to a lesser extent”.
As for “FARM3: FAM-labeled hydrocarbon-stapled FADD Armadillo domain peptide; mass fits SEQ ID NO. 4 KVADLVQEXQQAXDLQNRSK ({FAM-PEG3′}-KVADLVQE[S5]QQA[S5]DLQNRSK-NH2; staple 9-13; not fully specified) [FAM-labeled hydrocarbon-stapled FADD Armadillo domain peptide; 4 KVADLVQEXQQAXDLQNRSK]”, the “amount of FADD that co-purified with G2019S-LRRK2 (LRRK2-FADD interaction)” value is “reduced the interaction between LRRK2 and FADD”.
